Assay results: patent US9113649B2, “Food additive comprising an amidase for detoxifying ochratoxin” (DuPont Nutrition Biosciences ApS, priority 2010, dated 2015)

Tests used:
[1] = type: biochemical; conditions: same concentration, optimum conditions, one hour
Method: The enzyme solution of Amidase 2 mat obtained after AEX was tested on ochratoxin B at the same concentration under optimum conditions for one hour. The degrading rate with ochratoxin B was 8% compared to OTA.

[2] = OTA degradation as a function of amidase 2 mat concentration; type: biochemical
Method: The amidase used was purified from the broth of transformant 13 (438aa protein referred to as amidase 2 mat).
Ochratoxin A (OTA) degrading activity of amidase 2 mat purified from the fermentation broth of A. niger harboring the amidase 2 gene as a function of its concentration is shown in FIG. 15. It can be seen from FIG. 15 that the degradation of OTA was amidase 2 mat concentration dependent. One can also see that after 30 min with an amidase 2 mat concentration of 160 ng/ml the OTA decreased by 83%. From the linear region of FIG. 15 the calculated specific activity for amidase 2 mat was 900 nanomole OTA hydrolyzed per min per mg protein at pH7.0 and 40° C. at an OTA concentration of 1 μg/ml reaction mixture. The reaction for FIG. 15 was performed in 0.1 Mops-NaOH (pH 7.0) and 40° C. for 30 min before it was stopped by adding equal volume of acetonitrile containing 0.2% acetic acid and analyzed on RP-HPLC on a C18 column as described in the Material and Method section.

[3] = sensitivity of OTA hydrolysis to CaCl2 and EDTA; type: biochemical
Method: One protease inhibitor cocktail (PIC) tablet (Roche Applied Science, Mannhein, Germany) was dissolved in 1.5 mL. milliQ water to obtain a 7× stock solution. For formamidase inhibition assay, instead of 100 μL milliQ water normally employed, 20 μL of 7×PIC stock solution and 80 μL of milliQ water were mixed with other components listed in formamidase activity assay section. For OTA degrading activity, 35 μL 7×PIC solution were mixed with 210 μL OTA 1 μg/mL and 5 μL enzyme solution. […] For controls, inhibitor solution is replaced either by milliQ water for formamidase activity assay or MES-NaOH pH7 buffer for OTA degrading activity.
Also it is known that the OTA degrading activity in the Amano™ lipase product is sensitive to EDTA.
[…] The reaction was performed at 37° C. for 30 min and stopped by adding 150 μl acetonitrile containing 0.2% acetic acid. OTA and its product OT-alpha (=ODα) were analyzed on RP-HPLC on C18 column with an injection of 5 μl. Positive control (PC) contained no additives other than the buffer the amidase and OTA. Blank contained only buffer and OTA.

[4] = degradation of OTA in milk by amidase 2 mat; type: biochemical; conditions: light milk; 47 ppb at start; 0.22 μg protein; 40° C., 2.5 hr
Method: Light milk (1.5% fat, protein 3.4 g, carbohydrate 4.7 g Calcium 120 mg, Phosphorus 95 mg in 100 ml) from Aria Foods Amba (Aarhus, Denmark) 0.15 ml, 3 μl OTA (2.5 μg/ml), 7.5 μl purified amidase 2 mat (from the broth of A. niger harboring the amidase 2 gene) containing 0.22 μg protein were mixed and reacted at 40° C. for 2.5 hr. The OTA decreased from 47 ppb at start to undetectable level (<2 ppb) after 2.5 hr incubation. OTA analysis by HPLC was described in the materials and methods section above.

[5] = detoxification of OTA in corn flour by amidase 2 mat; type: biochemical; conditions: from 38 ppm, 30° C., 20 hr, pH7.0
Method: (§1) The reaction mixture in 1.5 ml eppendorf tubes (C1-3) comprised 60 mg corn flower, 200 μl Mops-NaOH (0.2 M pH7.0), 40 μl amidase 2 mixture (which was mixture of an equal volume of the broth of A. niger transformant having amdiase 2 gene 3, 4, 7, 8, 10, 11, 13, 14, and 15), 20 μl OTA (0.5 mg/ml). Total volume of the three components was 260 μl; final OTA was 38 μg/ml or 38 ppm (ppm, parts per million). Control: Tubes of Controls (C-4-6) were the same as C1-3 except that the amidase preparation (the broth) was replaced with water.
(§2) The reaction was performed at 30° C. with skaking for 20 hr before the addition of equal volume of acetonitrile 260 μl containing 0.2% acetic acid to stop the reaction and to extract the OTA. After centrifugation and filter, the filtrate was analyzed on HPLC.

[6] = detoxification of OTA in corn-soy based feed by amidase 2 mat; type: biochemical; conditions: from 38 ppm, 20 hr incubation
Method: as §1, §2
The tests of amidase 2 mat with soy-corn based feed (whose composition is given in Table 3) contaminated with OTA was exactly as the test with corn flour, that is, tubes S1-3 (experimental) were with the broth while for tubes S 5-6 (controls) water replaced the broth. After 20 hr incubation, the OTA level was reduced from 38 ppm to 6.6 ppm, a reduction of 6 times or 82%.

[7] = pH optimum of amidase 2 in degrading OTA; type: biochemical; conditions: 30° C., 60 min; followed by pH 6 and 8; pH 5 and 9
Method: The reaction mixture contained 5 μl amidase 2 mixture (a mixture of the intracellular fractions of transformant 3, 4, 7-8, 10-11 and 13-15) with a protein concentration of 155 μg protein/ml), 0.1 ml 67 mM phosphate buffer (pH3, 4, 5, 6, 7, 8 and 9), 25 μl OTA (1 μg/ml). The reaction was performed at 30° C. for 60 min and stopped by the addition of 0.13 ml acetonitrile containing 0.2% HAC. An injection volume of 10 μl was used for RP-HPLC analysis of remaining OTA after filtering.
Five microliters of enzyme solution were combined with […] OTA 1 μg/mL diluted in different buffers: 50 mM sodium acetate buffer (pH 4, 4.5, 5 and 5.5); 50 mM MES-NaOH buffer (pH 6, 6.5 and 7); 50 mM Tris-HCl buffer (pH 7.5, 8 and 8.5).

[8] = heat stability of amidase 2 at 80° C.; type: biochemical; conditions: 5-30 min pre-incubation at 80° C., pH7.0
Method: The pre-incubation mixture in a 1.5 ml ependorpf tube contained 5 μl of the amidase 2 mixture (155 μg protein/ml), and 45 μl 67 mM phosphate buffer pH7.0. The samples were pre-incubated at 80° C. for 0, 5, 10, 15, 20, 25 and 30 min. After cooling to 15° C., 50 μl 67 mM phosphate buffer and 25 μl OTA (1 μg/ml) were added to start the reaction this was incubated at 30° C. for 60 min, the reaction was stopped by the addition of 130 μl acetonitrile containing 0.2% HAC. An injection volume of 10 μl was used for RP-HPLC analysis of remaining OTA after filtering.
The reaction mixture of 5 μl enzyme plus 45 μl 68 mM sodium phosphate (pH7.0) was incubated at 80° C. for 0-30 min before adding another 50 μl the phosphate buffer and 25 μl 1 μg/ml OTA, and incubated at 30° C. for 60 min. The reaction was stopped by adding 130 μl acetonitrile containing 0.2% acetic acid (v/v). The reaction mixture was filtered and injected (10 μl) for HPLC analysis. Ctrl was control where no amidase was added.

[9] = pH and temperature stability of amidase 2 at 70° C.; type: biochemical; conditions: between pH 6 and 9; pre-incubated 30 min; stability decreased with the decrease in pH
Method: The reaction mixture contained 5 μl amidase 2 mixture (155 μg protein/ml), 45 μl 67 mM phosphate buffer at either pH3, 4, 5, 6, 7, 8 or 9. The reaction mixes were incubated at 70° C. for 30 min, before 2 μl 0.5 mg/ml OTA in ethanol and 80 μl 0.2M Mops pH 7.0 were added and the samples incubated at 30° C. for 60 min. The reaction was stopped by adding 130 μl acetonitrile containing 0.2% HAC, filtered and analysed by RP-HPLC.
Further more the recombinant amidase 2 was quite stable at 70° C. between pH 6 and 9. The stability decreased with the decrease in pH (FIG. 13). Activity was assayed at pH 7.0 and 30° C. The pre-incubation mixture contained 5 μl amidase 2 mixture (155 μg protein/ml), 45 μl 67 mM phosphate buffer (pH3, 4, 5, 6, 7, 8 and 9). The samples were pre-incubated at 70° C. for 30 min. After cooling to 30° C., 2 μl 0.5 mg/ml OTA in ethanol and 80 μl 0.2M Mops-NaOH (pH 7.0) were added and the reaction incubated at 30° C. for 60 min. The reaction was stopped by adding 130 μl acetonitrile containing 0.2% HAC, filtered and injected on RP-HPLC with an injection of 5 μl to monitor the remaining OTA.

[10] = degradation of OTA in corn flour by amidase 2 sig; type: biochemical; conditions: 800 ppb at the start, 3.1 μg protein, 37° C., 22 hr
Method: For corn flour, 50 mg corn flour was added 210 μl water, 8 μl OTA (25 μg/ml) and 20 μl amidase 2 sig (3.1 μg protein), mixed and incubated at 37° C. for 22 hr. The OTA concentration decreased from 800 ppb at the start to 14 ppb at the end. OTA analysis by HPLC is described in the materials and methods section above.

[11] = degradation of OTA in DDGS by amidase 2 sig; type: biochemical; conditions: DDGS slurry pH 6.7; 800 ppb at start; 3.1 μg protein; 37° C., 22 hr
Method: For DDGS, 1 g was suspended in 10 ml water, pH adjusted to 6.7 with NaOH. To 210 μl of this slurry was added 8 μl OTA (25 μg/ml) and 20 μl amidase 2 sig (3.1 μg protein), mixed and incubated at 37° C. for 22 hr. The OTA concentration decreased from 800 ppb at start to 5 ppb at the end. OTA analysis by HPLC was described in the materials and methods section above.

B1: amidase 2 mat: secreted mature 438 amino acid amidase 2 from A. niger, MW about 47 kDa, N-terminal 42 amino acids cleaved (protein)
chain: STDEAKVTIIYAGLLIPGDGEPLRNAALVISDKIIAFVGSEADIPKKYLRSTQSTHRVPVLMPGLWDCHMHFGGDDDYYNDYTSGLATHPASSGARLARGCWEALQNGYTSYRDLAGYGCEVAKAINDGTIVGPNVYSSGAALSQTAGHGDIFALPAGEVLGSYGVMNPRPGYWGAGPLCIADGVEEVRRAVRLQIRRGAKVIKVMASGGVMSRDDNPNFAQFSPEELKVIVEEAARQNRIVSAHVHGKAGIMAAIKAGCKSLEHVSYADEEVWELMKEKGILYVATRSVIEIFLASNGEGLVKESWAKLQALADSHLKAYQGAIKAGVTIALGTDTAPGGPTALELQFAVERGGMTPLEAIKAATANAPLSVGPQAPLTGQLREGYEADVIALEENPLEDIKVFQEPKAVTHVWKGGKLFKGPGIGPWGEDARNPFL
modifications: Aspergillus niger
notes: secreted mature 438 amino acid amidase 2 from A. niger, MW about 47 kDa, N-terminal 42 amino acids cleaved
With B1 the “degrading rate with ochratoxin B compared to OTA” value [1] was 8%, the OTA decrease ([2]; 160 ng/ml amidase 2 mat, 30 min, pH 7.0, 40° C.) was 83% and the specific activity ([2]; pH7.0 and 40° C., OTA 1 μg/ml reaction mixture, calculated from linear region of FIG. 15) was 900 nanomole OTA hydrolyzed per min per mg protein. The “inhibition of activity in the hydrolysis of OTA” value ([3]; 8 mM CaCl2, enzyme purified from the Amano™ lipase product) was “around 40%”, the “inhibition of activity in the hydrolysis of OTA” value ([3]; 8 mM CaCl2, enzyme purified from the broth of transgenic A. niger) was “around 40%” and the “inhibition by extra EDTA” value ([3]; data not shown) was “inhibited”. For the same molecule, the OTA after incubation [4] was < 2 ppb, the “remaining OTA” value [5] was “less than 2 ppb” and the “OTA level after incubation” value [6] was 6.6 ppm.

B2: recombinant amidase 2: amidase 2 from transgenic A. niger intracellular preparation, a mixture of intracellular fractions of transformants 3, 4, 7-8, 10-11 and 13-15 (protein)
chain: MVRRIASATPMVQSPMSPLGTTYCVRPNPVSLNLQRRPLVIASTDEAKVTIIYAGLLIPGDGEPLRNAALVISDKIIAFVGSEADIPKKYLRSTQSTHRVPVLMPGLWDCHMHFGGDDDYYNDYTSGLATHPASSGARLARGCWEALQNGYTSYRDLAGYGCEVAKAINDGTIVGPNVYSSGAALSQTAGHGDIFALPAGEVLGSYGVMNPRPGYWGAGPLCIADGVEEVRRAVRLQIRRGAKVIKVMASGGVMSRDDNPNFAQFSPEELKVIVEEAARQNRIVSAHVHGKAGIMAAIKAGCKSLEHVSYADEEVWELMKEKGILYVATRSVIEIFLASNGEGLVKESWAKLQALADSHLKAYQGAIKAGVTIALGTDTAPGGPTALELQFAVERGGMTPLEAIKAATANAPLSVGPQAPLTGQLREGYEADVIALEENPLEDIKVFQEPKAVTHVWKGGKLFKGPGIGPWGEDARNPFL
modifications: Aspergillus niger
With B2 the “pH of highest enzyme activity” value [7] was 7.0 pH, the “activity remained after pre-incubation” value [8] was “more than 80%” and the “stability at 70° C.” value [9] was “quite stable”.

B3: amidase 2 sig: full length 480 amino acid A. niger amidase 2 with N-terminal or signal sequence, MW about 51 kDa; intracellular fraction (protein)
chain: B2 chain
modifications: Aspergillus niger
notes: intracellular fraction
With B3 the “inhibition by CaCl2” value ([3]; 8 mM CaCl2, intracellular fraction of transgenic A. niger) was “not appreciably inhibited”, the “inhibition by CaCl2” value ([3]; 20 mM CaCl2, 37° C., 30 min, pH7.0) was “no inhibition” and the “inhibition by EDTA” value ([3]; 20 mM EDTA, 37° C., 30 min, pH7.0) was “no inhibition”. The “OTA concentration at the end” value [10] was 14 ppb and the “OTA concentration at the end” value [11] was 5 ppb.
